The values below come from US20100215656A1.

One assay concerns the target CD22 (human) (UniProt P20273). The assay is described as follows: cell-based or functional assay.
In a further assay the target is mesothelin (UniProt Q13421). The assay is described as follows: cell-based or functional assay.
Chain of UniProt Q13421 (Q13421 other isoform, or with tags, fused parts or gaps limits assumed): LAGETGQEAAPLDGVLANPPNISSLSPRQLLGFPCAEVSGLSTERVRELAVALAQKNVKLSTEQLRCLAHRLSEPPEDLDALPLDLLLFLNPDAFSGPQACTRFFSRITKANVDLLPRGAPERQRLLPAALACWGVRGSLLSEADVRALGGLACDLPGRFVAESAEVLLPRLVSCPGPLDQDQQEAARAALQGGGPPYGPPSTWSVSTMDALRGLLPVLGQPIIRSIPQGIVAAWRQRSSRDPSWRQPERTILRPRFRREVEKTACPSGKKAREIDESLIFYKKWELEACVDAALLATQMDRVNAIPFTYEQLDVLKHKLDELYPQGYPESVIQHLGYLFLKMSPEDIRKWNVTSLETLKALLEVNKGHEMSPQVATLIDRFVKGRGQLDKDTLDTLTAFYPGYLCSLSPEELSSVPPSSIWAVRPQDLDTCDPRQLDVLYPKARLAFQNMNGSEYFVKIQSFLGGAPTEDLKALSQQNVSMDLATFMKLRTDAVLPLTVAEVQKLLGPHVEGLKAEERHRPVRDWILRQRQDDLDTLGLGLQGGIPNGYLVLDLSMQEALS

Chain of UniProt P20273 (P20273 20-847): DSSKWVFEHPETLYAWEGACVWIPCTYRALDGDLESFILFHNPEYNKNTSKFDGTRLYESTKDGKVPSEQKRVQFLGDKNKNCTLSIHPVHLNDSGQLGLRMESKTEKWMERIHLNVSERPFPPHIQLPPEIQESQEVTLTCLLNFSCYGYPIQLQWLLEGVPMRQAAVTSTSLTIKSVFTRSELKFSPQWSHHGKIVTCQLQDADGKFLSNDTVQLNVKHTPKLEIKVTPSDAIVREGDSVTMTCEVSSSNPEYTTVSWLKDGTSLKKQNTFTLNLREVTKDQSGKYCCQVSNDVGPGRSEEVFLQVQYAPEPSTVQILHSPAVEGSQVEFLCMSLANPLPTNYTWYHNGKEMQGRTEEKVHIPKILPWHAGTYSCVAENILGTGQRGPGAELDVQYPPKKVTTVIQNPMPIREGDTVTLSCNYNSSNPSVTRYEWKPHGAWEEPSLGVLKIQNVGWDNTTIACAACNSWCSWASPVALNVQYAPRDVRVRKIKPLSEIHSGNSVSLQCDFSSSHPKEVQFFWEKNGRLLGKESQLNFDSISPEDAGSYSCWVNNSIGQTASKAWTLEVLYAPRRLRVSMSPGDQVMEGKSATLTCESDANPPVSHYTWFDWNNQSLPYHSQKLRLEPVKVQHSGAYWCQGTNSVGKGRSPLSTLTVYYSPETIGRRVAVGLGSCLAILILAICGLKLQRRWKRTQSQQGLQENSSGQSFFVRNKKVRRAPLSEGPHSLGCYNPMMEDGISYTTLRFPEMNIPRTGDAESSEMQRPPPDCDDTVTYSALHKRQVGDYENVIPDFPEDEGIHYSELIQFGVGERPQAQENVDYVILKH

As for “HA22-LR (anti-CD22 dsFv of HA22 fused to the 25-kDa lysosome-resistant PE fragment, PE25 / PE-LR)”, in the assay with CD22 (human), the Relative Activity (against HA22) on CA46 cells amounted to 1.15, the Relative Activity (against HA22) on Daudi cells turned out to be 1.12, the Relative Activity (against HA22) on KOPN-8 cells was determined as 0.22 and the Relative Activity (against HA22) on Raji cells was 0.49. In addition, in the assay with CD22 (human), the Relative Activity (against HA22) on Ramos cells was 0.91; the Relative Activity (against HA22) on WSU-CLL cells came to 2.12; the Relative Activity (against HA22), cell death, CLL #1 is 16.2; the Relative Activity (against HA22), cell death, CLL #2 amounted to 7.65. In the assay with CD22 (human), this substance yielded a Relative Activity (against HA22), cell death, HCL #2 of 0.08; a Relative Activity (against HA22), cell death, HCL #3 of 1.39; a Relative Activity (against HA22), protein synthesis, CLL #1 greater than 210; a Relative Activity (against HA22), protein synthesis, CLL #2 greater than 16.8. Besides, in the assay with CD22 (human), the Relative Activity (against HA22), protein synthesis, CLL #3 was found to be 2.07; the Relative Activity (against HA22), protein synthesis, CLL #4 was determined as 51.8; the Relative Activity (against HA22), protein synthesis, CLL #5 was determined as 2.16; the Relative Activity (against HA22), protein synthesis, HCL #1 came to 0.88. In the assay with CD22 (human), this substance displayed a Relative Activity (against HA22), protein synthesis, HCL #2 of 0.14; a Relative Activity (against HA22), protein synthesis, HCL #3 greater than 1.76; an inhibition of protein synthesis at 1 ng/ml, patient cells CLL #2 of 55%.

As to “SS1-PE-LR (antibody SS1 fused to the PE used in HA22-LR)”, in the assay with mesothelin, the IC50 (ng/ml), cytotoxicity on A431/K5 cells is 1.19 ng/mL; the IC50 (ng/ml), cytotoxicity on A1847 cells (*Incomplete cell killing) stood at 4.24 ng/mL; the IC50 (ng/ml), cytotoxicity on HAY cells amounted to 1.22 ng/mL; the IC50 (ng/ml), cytotoxicity on KB31 cells (*Incomplete cell killing) is greater than 1000 ng/mL. In addition, in the assay with mesothelin, the IC50 (ng/ml), cytotoxicity on L55 cells turned out to be 3.87 ng/mL; the IC50 (ng/ml), cytotoxicity on OVCAR-8 cells (*Incomplete cell killing) worked out at 4.29 ng/mL; the Relative Activity (against the PE38 immunotoxin) on A431/K5 cells is 0.17; the Relative Activity (against the PE38 immunotoxin) on A1847 cells was 0.96. Moreover, in the assay with mesothelin, the Relative Activity (against the PE38 immunotoxin) on HAY cells was determined as 3.72, the Relative Activity (against the PE38 immunotoxin) on KB31 cells (fold decrease) is greater than 200, the Relative Activity (against the PE38 immunotoxin) on L55 cells was determined as 1.23 and the Relative Activity (against the PE38 immunotoxin) on OVCAR-8 cells worked out at 0.54.

Regarding SS1P (antibody SS1 fused to PE38), in the assay with mesothelin, the IC50 (ng/ml), cytotoxicity on A431/K5 cells is 0.2 ng/mL; the IC50 (ng/ml), cytotoxicity on A1847 cells was 4.06 ng/mL; the IC50 (ng/ml), cytotoxicity on HAY cells stood at 4.54 ng/mL; the IC50 (ng/ml), cytotoxicity on KB31 cells was 5.15 ng/mL. Also, in the assay with mesothelin, the IC50 (ng/ml), cytotoxicity on L55 cells is 4.77 ng/mL and the IC50 (ng/ml), cytotoxicity on OVCAR-8 cells was determined as 2.32 ng/mL.
